Assay results published in US20220098315A1 (Novartis, published 2022).

Assays:
[1] = target: recombinant human CD40 (human) (UniProt P25942); experiment: SPR (Biacore T100), antibody captured on Protein A, CD40 antigen as analyte, 25 C, 1:1 model
human CD40 on cells = human CD40 on cells (human, UniProt P25942 21-277); experiment: cell-based or functional assay
human CD40 on cells, sequence (P25942 21-277 limits assumed): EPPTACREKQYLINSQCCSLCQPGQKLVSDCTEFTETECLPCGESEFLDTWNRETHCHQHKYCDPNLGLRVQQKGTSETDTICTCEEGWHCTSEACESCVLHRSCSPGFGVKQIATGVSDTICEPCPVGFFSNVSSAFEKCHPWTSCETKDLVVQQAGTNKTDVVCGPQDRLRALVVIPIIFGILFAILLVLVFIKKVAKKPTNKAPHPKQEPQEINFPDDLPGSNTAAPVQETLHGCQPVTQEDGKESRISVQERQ

recombinant human CD40 (human), sequence (P25942 21-193 limits assumed): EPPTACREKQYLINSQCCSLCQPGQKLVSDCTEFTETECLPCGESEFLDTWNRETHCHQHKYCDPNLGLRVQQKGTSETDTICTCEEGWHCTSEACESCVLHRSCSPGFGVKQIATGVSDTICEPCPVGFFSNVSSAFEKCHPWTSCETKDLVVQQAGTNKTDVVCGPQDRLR

In the case of HCD122 (antibody), the Kd [1] is reported as 0.467 nM, the koff [1] is reported as 0.000126 s⁻¹ and the kon [1] is reported as 284000 M⁻¹ s⁻¹.

B1: CFZ533 (antibody, human IgG1, kappa, N297A, V domains shown)
VH: QVQLVESGGGVVQPGRSLRLSCAASGFTFSSYGMHWVRQAPGKGLEWVAVISYEESNRYHADSVKGRFTISRDNSKITLYLQMNSLRTEDTAVYYCARDGGIAAPGPDYWGQGTLVTVSS
VL: DIVMTQSPLSLTVTPGEPASISCRSSQSLLYSNGYNYLDWYLQKPGQSPQVLISLGSNRASGVPDRFSGSGSGTDFTLKISRVEAEDVGVYYCMQARQTPFTFGPGTKVDIRR
With B1 the “IC50, rCD154-induced proliferation of human PBMCs” value (human CD40 on cells) was 0.12 nM.
